Measurements taken from US20070042463A1 (BURNHAM INSTITUTE, published 2007).
Blank lines part the entries; values can stand above or below the binder they belong to.

B1: empty (LexA DNA-binding domain without insert) (other, UniProt P0A7C2 1-202, looked up)
chain: MKALTARQQEVFDLIRDHISQTGMPPTRAEIAQRLGFRSPNAAEEHLKALARKGVIEIVSGASRGIRLLQEEEEGLPLVGRVAAGEPLLAQQHIEGHYQVDPSLFKPNADFLLRVSGMSMKDIGIMDGDLLAVHKTQDVRNGQVVVARIDDEVTVKRLKKQGNKVELLPENSEFKPIVVDLRQQSFTIEGLAVGVIRNGDWL
B2: SIP-L (other)
chain: MASEELQKDLEEVKVLLEKATRKRVRDALTAEKSKIETEIKNKMQQKSQKKAELLDNEKPAAVVAPITTGYTVKISNYGWDQSDKFVKIYITLTGVHQVPTENVQVHFTERSFDLLVKNLNGKSYSMIVNNLLKPISVEGSSKKVKTDTVLILCRKKVENTRWDYLTQVEKECKEKEKPSYDTETDPSEGLMNVLKKIYEDGDDDMKRTINKAWVESREKQAKGDTEF

Tests used:
SIP-L [1] = target: B2; test: yeast two-hybrid; empty LexA with B42-SIP-L; Leu+ growth - and β-Gal -
Siah-1 (22-298) = target: T1, Siah-1 (22-298) (human, UniProt Q8IUQ4 6-282); test: yeast two-hybrid library screen; LexA-Siah-1 (22-298) bait, human embryonic brain cDNA clones
T1 construct: also called Siah-1α amino acids 22-298; LexA/Siah-1 bait
T1 sequence: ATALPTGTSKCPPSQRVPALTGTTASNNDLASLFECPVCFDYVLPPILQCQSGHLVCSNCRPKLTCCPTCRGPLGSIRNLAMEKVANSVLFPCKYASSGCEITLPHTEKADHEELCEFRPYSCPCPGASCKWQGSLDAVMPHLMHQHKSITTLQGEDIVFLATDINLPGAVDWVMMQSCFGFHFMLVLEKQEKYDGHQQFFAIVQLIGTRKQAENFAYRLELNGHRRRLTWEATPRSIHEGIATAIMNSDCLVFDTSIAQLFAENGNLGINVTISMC

[2] = target: the molecule itself; test: yeast two-hybrid; LexA-SIP-L with B42-SIP-L; growth on leucine-deficient media (Leu+)
[3] = target: B1; test: yeast two-hybrid; empty LexA with B42-APC(2681-2843); Leu+ growth - and β-Gal -
SIP-L [4] = target: B2; test: yeast two-hybrid; LexA-SIP-L with B42-SIP-S; Leu+ growth - and β-Gal -
HA-TRAF6 = test: cell-based or functional assay
SAF-1 = target: T2, SAF-1 (human, UniProt Q9Y3I1 92-522); test: yeast two-hybrid (FIG. 6A)
T2 construct: also called SAF-1α; Skp1-Associated F-box protein-1
T2 sequence: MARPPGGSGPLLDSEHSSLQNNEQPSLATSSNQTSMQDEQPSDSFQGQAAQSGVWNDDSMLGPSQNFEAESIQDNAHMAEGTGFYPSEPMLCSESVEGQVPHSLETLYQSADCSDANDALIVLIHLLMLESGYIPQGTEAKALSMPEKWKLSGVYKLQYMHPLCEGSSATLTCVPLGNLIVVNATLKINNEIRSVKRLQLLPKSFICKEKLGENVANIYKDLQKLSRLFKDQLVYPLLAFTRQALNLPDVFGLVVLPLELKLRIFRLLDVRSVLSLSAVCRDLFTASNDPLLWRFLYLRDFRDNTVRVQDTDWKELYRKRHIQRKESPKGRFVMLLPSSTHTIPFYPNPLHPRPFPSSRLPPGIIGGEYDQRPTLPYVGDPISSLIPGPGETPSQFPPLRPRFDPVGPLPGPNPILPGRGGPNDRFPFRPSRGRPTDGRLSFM
Protocol: Transformed cells were grown on semi-solid media lacking leucine or containing leucine as a control.

- binding result [3]: no binding
- binding result (Siah-1 (22-298)): binds
B3: APC (2681-2843) (other, human, UniProt P25054 2681-2843, looked up)
chain: PVIDSVSEKANPNIKDSKDNQAKQNVGNGSVPMRTVGLENRLNSFIQVDAPDQKGTEIKPGQNNPVPVSETNESSIVERTPFSSSSSSKHSSPSGTVAARVTPFNYNPSPRKSSADSTSARPSQIPTPVNNNTKKRDSKTDSTESSGTQSPKRHSGSYLVTSV
notes: LexA or B42 fusion in yeast two-hybrid

- binding result (SIP-L [4]): no binding
- binding result (Siah-1 (22-298)): binds
B4: SIP-S (other)
chain: MASEELQKDLEEVKVLLEKATRKRVRDALTAEKSKIETEIKNKMQQKSQKKAELLDNEKPAAVVAPITTGYTDGISQISL
notes: B42 fusion in yeast two-hybrid

- binding result (SAF-1): no binding
B6: Siah-1 (other)
chain: MVIIIFLLPPYVFISEMSRQTATALPTGTSKCPPSQRVPALTGTTASNNDLASLFECPVCFDYVLPPILQCQSGHLVCSNCRPKLTCCPTCRGPLGSIRNLAMEKVANSVLFPCKYASSGCEITLPHTEKADHEELCEFRPYSCPCPGASCKWQGSLDAVMPHLMHQHKSITTLQGEDIVFLATDINLPGAVDWVMMQSCFGFHFMLVLEKQEKYDGHQQFFAIVQLIGTRKQAENFAYRLELNGHRRRLTWEATPRSIHEGIATAIMNSDCLVFDTSIAQLFAENGNLGINVTISMC
notes: also called Siah-1α; Siah 1α

Second part, the binder before the results:

Binder: B1
- binding result (SIP-L [1]): no binding

Binder: B2
- binding result (Siah-1 (22-298)): binds
- binding result [2]: binds

B5: ODC-RANK peptide (protein, part only; not given: Order of parts uncertain, part only)
chain, part: MEQKLISEEDLMNNFGNEEFDCHFLDEGFTAKDILDQKINEVSSSDDKDAFYVADLGDILKKHLRWLKALPRVTPFYAVKCNDSKAIVKTLAATGTGFDCASKTEIQLVQSLGVPPERIIYANPCKQVSQIKYAANNGVQMMTFDSEVELMKVARAHPKAKLVLRIATDDSKAVCRLSVKFGATLRTSRLLLERAKELNIDVVGVSFHVGSGCTDPETFVQAISDARCVFDMGAEVGFSMYLLDIGGGFPGSEDVKLKFEEITGVINPALDKYFPSDSGVRIIAEPGRYYVASAFTLAVNIIAKKIVLKEQTGSDDEDESSEQTFMYYVNDGVYGSFNCILYDHAHVKPLLQKRPKPDEKYYSSSIWGPTCDGLDRIVERCDLPEMHVGDWMLFENMGAYTVAAASTFNGFQRPTIYYVMSGPAWQLMQQFQNPDFPPEVEEQDASTLPVSCAWESGMKRHRAACASASINVAGGGSGGGGSGGGGSGGGGS
- half-life of HA-TRAF6 (35S pulse-chase), ODC-RANKp with AZ (HA-TRAF6): < 1 h
- half-life of HA-TRAF6 (35S pulse-chase), ODC-RANKp without AZ (HA-TRAF6): 2 h
